Reference: patent US20200079842A1 (NETRIS PHARMA, published 2020)
Values joined by “and” are separate entries in the source; they are usually repeats but may differ in a detail not shown here. Identical values can stand only once.

What was measured:
[1] = target: T1, FLAG-tagged netrin-1 (Adipogen) (human, UniProt O95631 25-604, limits assumed); test: competition ELISA: FLAG-netrin-1 binding to coated UNC5B-Fc
T1 construct: Bought protein; also called FLAG®-tagged Netrin-1 (APOTECH); not shown: FLAG tag
Method: (§1) After three washings with 300 μL of PBS-0.05% TWEEN®-20 (PBS-T), the plate was blocked by addition of 100 μL of PBS-2% BSA and incubated 1 hour at room temperature. After three washings with 300 μL of PBS-T, the plate was incubated for 1 hour at room temperature, with 100 μL of PBS-1% BSA containing 50 ng/mL FLAG®-tagged netrin-1 (Adipogen) and various quantities (0.2 ng to 3000 ng) of the 4C11 antibody. After three washings with 300 μL of PBS-T, 100 μL of an anti-FLAG® M2 monoclonal antibody conjugated to horse radish peroxidase (HRP) (Sigma A8592) diluted 1/5,000 in PBST-1% BSA was added and the plate was incubated 1 hour at room temperature. After three washings with 300 μL of PBS-T, 100 μL of a luminescent substrate of HRP (ECL western blotting substrate, PIERCE) is added. After 5 to 10 minutes, the luminescence was read on a Tecan Infinite F-500 luminometer.

[2] = target: T1, FLAG-tagged netrin-1 (Adipogen); test: competition ELISA: FLAG-tagged netrin-1 with rising 4C11 on coated UNC5B-Fc, bound netrin-1 detected with anti-FLAG-HRP, luminescence
Method: FIG. 2: Inhibition of Netrin-1 binding onto UNC5B-Fc by 4C11. FLAG®-tagged Netrin-1 (APOTECH) in presence of various concentrations of 4C11 were incubated onto 96-well microtiter plate coated with UNC5B-Fc (Netris). Bound Netrin-1 was detected using an anti-FLAG® antibody conjugated with horseradish peroxidase (Sigma) and a chemiluminescent substrate (PIERCE ECL western blotting substrate). The luminescence was read on a Tecan Infinite F-500 luminometer.
as §1

[3] = target: T2, human netrin-1 (human, UniProt O95631 25-604, limits assumed); test: SPR (Biacore T100), 4C11 captured, netrin-1 as analyte, 25° C.; Exp 1
T2 construct: also called NET1; netrin-I
Method: (§2) Murine 4C11 (IgG1) antibody (SEQ ID NO: 12 and 13) was captured via amine coupled capture molecules. A series with increasing concentrations of netrin-1 was injected. Chip surface with amine coupled capture molecule alone was used as reference control surface for correction of possible buffer-effects or non-specific binding of netrin-I.
(§3) Analyte sample: Classical concentration series were measured at a flow rate of 50 μL/min by consecutive injection of the analyte in 5 or 6 increasing concentrations (c 2-164 nM). Running buffer: 20 mM Hepes pH7.4, 600 mM NaCl, 0.005% TWEEN® 20. The analyte was injected for 3 minutes followed by a dissociation phase of 90 s.
(§4) Kinetic parameters were then calculated by using the usual double referencing (control reference: binding of analyte to capture molecule; Flow Cell: netrin-1 concentration “0” as Blank) and calculation with model ‘titration kinetics 1: 1 binding.

[4] = target: T1, FLAG-tagged netrin-1 (Adipogen); test: ELISA-type assay, netrin-1 coated on the plate (legend paragraph 28: FLAG-tagged Netrin-1, APOTECH; Example 3: His-tagged Netrin-1, R&D), anti-mouse IgG-HRP, luminescence
Method: FIG. 1: ELISA binding assay of murine 4C11 to human Netrin-1. Various concentrations of 4C11 were incubated onto 96-well microtiter plate coated with FLAG®-tagged Netrin-1 (APOTECH). Bound 4C11 was detected using a goat anti-mouse IgG conjugated with horseradish peroxidase (Jackson Immunoresearch) and a chemiluminescent substrate (PIERCE ECL western blotting substrate). The luminescent was read on a Tecan Infinite F-500 luminometer.

[5] = target: T3, His-tagged Netrin-1 (R&D 6419-N1) (human, UniProt O95631 25-604); test: ELISA, coated His-tagged netrin-1, luminescence
T3 construct: Bought protein; also called adsorbed netrin-1; not shown: His tag
Method: White 96-well microtiter plate (Costar 3912 Corning) was incubated overnight at 4° C. with 100 ng of His-tagged Netrin-1 (R&D 6419-N1) in 100 μL of Phosphate buffer saline (PBS). After three washings with 300 μL of PBS-0.05% TWEEN®-20 (PBS-T), the plate was blocked by addition of 100 μL of PBS-3% BSA and incubated 1 hour at room temperature. After three washings with 300 μL of PBS-T, the plate was incubated with various quantities (10 ng to 1200 ng) of the anti-netrin-1 antibody. After three washings with 300 μL of PBS-T, 100 μL of a relevant secondary antibody conjugated to horse radish peroxidase (e.g. goat anti-human IgG (Fc) Sigma A0170 or goat anti-mouse IgG light chain specific (kappa) Jackson Immunoresearch 115-035-174) diluted 1/10,000 in PBST-3% BSA was added and the plate was incubated 1 hour at room temperature. After three washings with 300 μL of PBS-T, 100 μL of a luminescent substrate of HRP (ECL western blotting substrate, PIERCE) is added. After 5 to 10 minutes, the luminescence was read on a Tecan Infinite F-500 luminometer.

[6] = target: T2, human netrin-1; test: SPR (Biacore T100), 4C11 captured, netrin-1 as analyte, 25° C.
Method: as §2, §3, §4

B1: murine 4C11 (IgG1) antibody (antibody, V domains shown)
VH: QAYLQQSGAELVRPGASVKMSCKASGYTFTSYNMHWVKQTPRQGLEWIGAIYPGNGDTSYNQKFKGKATLTVDKSSSTAYMQLSSLTSEDSAVYFCARGGTGFAYWGQGTLVTVSA
VL: SIVMTQTPKFLLVSAGDRVTITCKASQSVSNDVAWYQQKPGQSPKLLIYYASNRYTGVPDRFTGSGYGTDFTFTISTVQAEDLAVYFCQQDYSSPWTFGGGTKLEIKR
notes: also called NET1-M-mAb; 4C11 murine IgG1
With B1 the IC50 [1] was 0.075 µg/mL and 0.502 nM, the “IC50 (read off the curve)” value [2] was ~0.6 nM and the koff [3] was 0.0018 s⁻¹. For the same binder, the “EC50 (read off the curve)” value [4] was ~0.03 µg/mL, the EC50 [5] was 0.057 µg/mL and 0.38 nM and the Kd [6] was 13.3 nM and 12.7 nM. For the same binder, the kon [6] was 140000 M⁻¹ s⁻¹.
